The record followed here is CN113912708A (INST MILITARY MEDICINE ACADEMY MILITARY SCIENCES PLA, dated 2022).

The target in one experiment is MERS-CoV RBD-Fc蛋白 (MERS-CoV (RBD); human (IgG Fc)).
In another experiment the target is MERS-CoV假病毒 (MERS-CoV). The experiment is described as follows: cell-based or functional assay.

B1: 单域重链抗体Nano-Anti-MRBD (VHH)
VHH: QVQLVESGGGLVQPGGSLRLSCAASGFSFIDYAMSWARQAPGKGLEWVSSISPGYGTTYYTDSVKGRFTISRDNAKNMLYLQMNSLKPEDTATYYCAKGSDPFTPGIQRGQGTQVTVSS
In general, EC50 refers to the concentration giving half of the maximal effect. A lower EC50 goes with an effect from little substance. For the molecule B1, the EC50 with MERS-CoV RBD-Fc蛋白 is 0.744 ng/mL. For the same molecule, the “对MERS-CoV假病毒进入细胞的抑制率 (IC50, luciferase RLU, Huh-7细胞)” value with MERS-CoV假病毒 amounted to 10.7 ng/mL.
